Several values for one entry are separate records, joined by “and”; a condition that tells them apart may be missing. Equal entries are not always repeated. Bounds are passed on as bounds.

For one data set, the system named is platelet aggregation. Nature of the data set: Platelet function and blood hemostasis. The class given is cell-based.
Data set [1] concerns the target T1, CD40 on peripheral B cells (Homo sapiens, UniProt P25942).
T1 construct: CD40 occupancy on peripheral B cells measuring free CD40 and total CD40; endogenous in cells; host or cells: peripheral / whole blood B cells of healthy subjects and rheumatoid arthritis patients dosed with CFZ533
Nature of the data set: Single-ascending dose study in healthy subjects and rheumatoid arthritis patients. The class given is in vivo. Particulars: for Safety and tolerability: single doses up to 3 mg/kg in healthy volunteers, 10 mg/kg in RA patients. The protocol: The safety, tolerability, PK and PD activity of mAb1 are being assessed in an ongoing, randomized, double-blind, placebo-controlled, single-ascending dose study of mAb1 in healthy subjects and patients with rheumatoid arthritis (RA). A total of 48 subjects have been enrolled: 36 healthy subjects who received single doses of mAb1 up to 3 mg/kg IV or S.C., and 12 patients with RA, 6 of whom received single doses of mAb1 at 10 mg/kg IV. […] An investigation of the 30 mg/kg IV dose is ongoing in RA patients. As this study is still ongoing, all clinical data are preliminary in nature and based on interim analyses conducted up to a dose of 10 mg/kg in RA patients. […]

The next data set deals with recombinant human CD40 (Homo sapiens, UniProt P25942). Nature of the data set: Surface plasmon resonance analysis of affinity for CD40. The data set is classed as binding. The protocol:
The binding analyses of recombinant CFZ533 were performed at 25° C. with HBS−EP+ as running buffer. A typical binding analysis cycle consisted of three steps: (i) capture of the antibody via ProteinA immobilized on the chip surface, (ii) binding of CD40 antigen to the captured anti-CD40 antibody, and (iii) regeneration of the ProteinA surface. To determine the kinetic rate constants of the antigen-antibody binding interactions, binding data were processed, double referenced with responses from blank injections. The binding curves were fitted locally using the 1:1 interaction model of the Biacore T100 Evaluation software to determine kinetic rate constants. The value for the equilibrium dissociation constant (KD) was calculated as the ratio of the rate constants kd/ka. All binding measurements were performed in two independent experiments.
(SPR reads the build-up and loss of mass on a sensor chip optically.)

In data set [2] the test system is T cell-dependent antibody responses (TDAR). Put plainly: Recall T cell-dependent antibody response to KLH. The data set is classed as in vivo, rhesus monkeys. Particulars: at second KLH immunization, single 10 mg/kg i.v. The protocol:
Monkeys were immunized with KLH three times (the first was about 3 weeks prior to dosing, the second was 2 weeks after mAb1 administration, and the third was after complete wash-out of mAb1). […] Once mAb1 was cleared, all animals mounted a full memory antibody response to the third KLH.
In the PK study, CFZ533 was administered to three animals at calculated single doses of 16.2 (5532), 18.5 (5531) and 20 (5530) mg/kg. Blood was sampled for analyses of CFZ533 serum concentrations, numbers of peripheral T and B lymphocytes, and CD40 occupancy on peripheral B cells by CFZ533. For recall TDAR experiments, animals were immunized with keyhole limpet hemocyanin (KLH) in Alum on study days 8 (priming) and 43 (recall; during CFZ533 treatment) respectively. Serum was sampled one day before and 7, 14 and 21 days after priming and recall immunizations. KLH specific IgM/IgG titers were determined with sandwich ELISA using cynomolgus monkey anti-KLH IgM/IgG reference serum as standard. PK assessment was performed as described above. See supplementary material for additional details on the PK and TDAR experiments.
Arrows below the x-axis highlight primary and secondary KLH immunizations. The timing of a single dose of 10 mg/kg CFZ533 is shown above. The asterisks indicate time points at which anti-KLH IgG and/or CFZ533 levels were measured. FIG. 10B. […]

The nature of data set [3]: Plasma concentrations in solid organ transplantation patients. The class given is in vivo, human. The protocol:
Without wishing to be bound by theory, the inventors have identified that sustained plasma concentrations at least about 40 μg/mL of the CFZ533 antibody was necessary to block the CD40-CD40L pathway in target tissues in solid organ transplantation patients. Thus, with a dosing regimen providing, throughout the entire treatment period, sustained plasma concentrations of at least 40 μg/mL and up to 400 μg/mL, in situations where CD40 expression in affected tissues would be enhanced (severity of the condition, activation of the immune system post transplantation), is considered for a therapeutic effect.

A short description of another data set: Single dose PK/PD study. The data set is classed as in vivo, cynomolgus monkeys. The protocol:
Single dose pharmacokinetic/pharmacodynamic (PK/PD) studies utilized biologics-treatment naive cynomolgus monkeys (Macaca fascicularis) between 7.5-8.5 years old (6.5±2.6 kg) and captive-bred from Philippines (Siconbrec, Makati City, Philippines). Animal handling, care, drug treatments and blood sampling are performed according to the Swiss Federal Law for animal protection (animal licenses BS #1900, BS #1495). For the recall immunization experiments, we utilized animals from a toxicology study conducted at Covance Laboratories GmbH, Muenster, Germany, (manuscript in preparation). The study was performed according to an authorized study protocol and local standard operating procedures in strict compliance with national legal regulations on animal welfare law and accepted animal welfare standards.
In the PK study, CFZ533 was administered to three animals at calculated single doses of 16.2 (5532), 18.5 (5531) and 20 (5530) mg/kg. […] KLH specific IgM/IgG titers were determined with sandwich ELISA using cynomolgus monkey anti-KLH IgM/IgG reference serum as standard. […]
FIG. 9A. Serum concentrations of CFZ533 in three cynomolgus monkeys after single dose administration at calculated doses of 16.2 (5532), 18.5 (5531) and 20 (5530) mg/kg intravenously. […]

T1 sequence (P25942 21-277): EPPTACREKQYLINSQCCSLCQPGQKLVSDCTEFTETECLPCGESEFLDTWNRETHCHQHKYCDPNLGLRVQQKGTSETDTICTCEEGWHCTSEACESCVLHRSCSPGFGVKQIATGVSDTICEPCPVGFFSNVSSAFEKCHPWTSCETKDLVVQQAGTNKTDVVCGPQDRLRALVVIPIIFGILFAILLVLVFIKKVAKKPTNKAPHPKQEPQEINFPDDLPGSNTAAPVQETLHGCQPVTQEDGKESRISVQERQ
Chain of recombinant human CD40 (P25942 21-277): as above

With “CFZ533: human anti-CD40 IgG1 monoclonal antibody with Fc-silencing N297A mutation; heavy chain SEQ ID NO: 9, light chain SEQ ID NO: 10”, in the data set with platelet aggregation, the Platelet aggregation responses entry was “does not induce platelet aggregation responses”. Moreover, in data set [1] (1 mg/kg IV), the “duration of full CD40 occupancy” value is given as 1 week. Further, the “duration of target engagement (full CD40 occupancy on B cells)” value in data set [1] (3 mg/kg IV, healthy subjects) is given as “about 4 weeks”. Also, in data set [1] (3 mg/kg SC, healthy subjects), the “duration of target engagement (full CD40 occupancy on B cells)” value is reported as “about 4 weeks” and the “time of peak plasma concentration” value was determined as 3 days. Moreover, the “duration of full CD40 occupancy” value in data set [1] (10 mg/kg IV, rheumatoid arthritis patients) was 8 weeks. For the same substance, in data set [1] (30 mg/kg IV, rheumatoid arthritis patients), the “duration of target engagement” value worked out at 16 weeks. For the same substance, the “decrease in total CD40 on peripheral B cells” value in data set [1] (healthy subjects) is recorded as “about 50%”. Further, in data set [1] (human, in vivo), the ADA incidence is reported as 2% and the “plasma concentration associated with full (≥90%) CD40 occupancy on whole blood B cells” value lay within 0.3 to 0.4 µg/mL. In addition, in data set [1] (single dose of 3 mg/kg (IV and SC)), the “duration of suppression of anti-KLH responses (full receptor occupancy)” value is 3-4 weeks. Further, in data set [1], the Safety and tolerability result is “did not reveal major safety concern”. In data set [1] (listed as mAb1), the Safety and tolerability entry was “safe and well tolerated”. In the data set with recombinant human CD40 (SPR, 25° C.), the “ka [1/Ms]” value is given as 3.13 ± 0.73 × 10^5 1/Ms and the “kd [1/s]” value is 0.93 ± 0.14 × 10^−4 1/s. In addition, the Kd (usually the constant that tells how readily two partners part at equilibrium) in the data set with recombinant human CD40 (surface plasmon resonance) worked out at 0.3 nM. Further, the “CFZ533 concentration required for complete suppression of recall TDAR” value in data set [2] (10 mg/kg) is > 40 µg/mL and 30 to 40 µg/mL. Besides, the “CFZ533 concentration required for complete suppression of recall TDAR” value in data set [2] (listed as mAb1, 10 mg/kg) was greater than 40 µg/mL. For the same substance, in data set [3] (about 400 μg/ml at steady state), the “Safety and tolerability at maximum plasma concentration” value is “generally safe and well tolerated”. Moreover, in data set [3] (human, in vivo), the Thromboembolic events result was “No thromboembolic events were observed” and the “observed maximum plasma concentration at steady state” value is on record as “about 400 μg/ml”. Further, the “sustained plasma concentration necessary to block the CD40-CD40L pathway in target tissues” value in data set [3] (solid organ transplantation patients) was “at least 40 μg/mL”. In addition, the “inflection point in PK profiles (drop of CD40 saturation)” value in “Single dose PK/PD study” (serum concentration-time profiles, non-human primates) lay in the range of 10 to 20 µg/mL. Also, in the data set “Single dose PK/PD study” (single intravenous dose 16.2, 18.5 and 20 mg/kg), the “Depletion of peripheral blood B cells” value is listed as “did not deplete peripheral blood B cells”.

The record behind these values is patent US11780927B2, “Anti-CD40 antibodies for use in prevention of graft rejection” (NOVARTIS AG, priority 2018, dated 2023).
